The record followed here is the supplement of paper PMC12636428.

This series relates to Saccharomyces cerevisiae. As to the kind of experiment: transcriptional activation domain activity (GFP:mCherry ratio, weighted mean of sorted bins, harmonized to initial dataset scale) (arbitrary fluorescence ratio units); higher = stronger transcriptional activation. As to conditions: beta-estradiol 1 µM; induction time 4 h. The method in brief: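 Yeast diploids with a GFP reporter received barcoded protein tiles, fused to an estradiol-inducible synthetic transcription factor, at the URA3 locus. Cultures were diluted 1:5 into SC holding 1 uM beta-estradiol, incubated 4 hours at 30 °C, sorted into 8 bins on GFP:mCherry ratio, and sequenced for barcodes, with tiles under 50 reads discarded. Activation activity values come from the read-weighted mean of bin median fluorescence, averaged across barcodes and linearly placed on the initial dataset scale.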

With “YSMPSEICIVGFSGVNTAFIVSLLVDLGFQASPIYSMYMFFLTWRFCARLVHY”, the “transcriptional activation domain activity” value worked out at 66500.
The value for “NGGLSELKERLDEGRASYAYVKVTYSNDKESTREKFILVIWIGSSCKVMRKAK” was 42900; that for “KLFFNLSILTLCAIMTLSVVVAFLFVTGCDPFYGYRGILFGFRILLTDIFSNM” was 31400.
The value for “VNSHGYKHISNLDELDDLLSLTYSDNNLLSASNNSDFNNSNNGIINTADTQNS” was 106000; that for “MLLLPFIPSYLTFFLIFLFVLFDFHFWFLFLFGLTFSCCCWTLSFCKTSLIWF” was 57700; that for “QTAVDNMNEQDLDGRNVRVNMANERPASSGGYGGGRGGGRGGFGGGRGRGGYG” was 29600.
The value for “GEEVSAPLPKPKGKGGRPRKHPRPEPVASEYEVDGEPTPKRARRAIKSKRGRR” was 23500; that for “FRRYKGPGREDEETDDEDEVRPRRPMEMKKRVLHLLTTEITINTTLYGDFTAF” was 27700; that for “MSLKRRAHRKSRNGCRECKRRRIKCDETKPHCGHCVRHGIHCVYPESAGASPA” was 43000.
“DSAPTKRGRGRPKGSKNKNKSVASPSSPTSGAGSSAPRKRGRPPKAKPAESGA”: the “transcriptional activation domain activity” value was determined as 38300.
The value for “RTSEMIMGFFFKNIVWTFVLFWYQIFCQFNGSMMFEYVLVALYNLIFTSLPII” was 62900; that for “MPSITLTWPDRAYFYSLLVVSLLSAKLLHVFSHLTTIPIFLFLLYFPTFFFLD” was 57300.
As to “ILSRLSLCIGIIIAFVFCTIPLLTYHRDSPVLRCSLYNIIDNFFLPLYLFIVW”, the “transcriptional activation domain activity” value was 53400.
Turning to “GPLSDEKSVKVSTFSELIGNDWQSMNFDLENNSREVTLNATSLLNENRLNQDS”, the “transcriptional activation domain activity” value amounted to 48600.
The value for “APAQPAATGGGLFGSGATGTTGGFGSNTAGGFGTGGGFGAKPAFGATPSTTGG” was 15600; that for “MGLSSSCFFLLLLVLSLFYYFFLSFFFIGHVAYFMTCGGLERAFLYLLLLLLL” was 49100; that for “EQLCMPIRRNDMRRRVELVRRCLLAALPSLPFWNEVCLWSTLNVFMSLLQDFF” was 82700.
With “SKQAGVGGEDEGEEDVPEDFGHSDNIRKKLLEVLGRDRRDRVLSSLYIVRADG”, the “transcriptional activation domain activity” value is 43800.
The value for “ADADAGKEAEGGAGGKRCKGCGKGEGEGEEGGLRRCARCKVVVYCGRECQKRD” was 36700; that for “NANVKLCVDGKWDKMCLMCTGDGTSSGVWRLCERILGSARCVIESIGCWVVLC” was 60600; that for “DLPVRLVELPNLLVTDIQQNAYLLDSALRVKLDAKGRAFLDSILLRVLQWLWT” was 48200.
The value for “RKPEAAAEKTAEAPEATGGEGTRRRASGRGRGRGRNGRGGRSGRAEGEEKKDE” was 31500; that for “GKPVIKISSFAPKLTVISSKQRPRRLSIKGSDGKDYQFLLKGHEDLRQDERVM” was 58400; that for “VCEEAVGCVRRAALEGFVDEDVRAANVLVRRAGERKERAGRAGRSRVVLVDLA” was 32600.
On to “EAKAEEAAPTEAPAADAPAAEPAAEASATEEAKPAEAAKEEKKEDRPKSPSLL”, for which the “transcriptional activation domain activity” value amounted to 8420.
The value for “MLCIPFCVLFCVVMGLINYGAFVDPCFLSFYVLLSTLLQLPSSFLPFFLFLPP” was 66900.
The value for “GLGFFFSFSLFNFFLHASSLYLLFLVTLLDLHYIFLVLSLTLFRVYVCFISAP” was 43400; that for “RQIESMVAPCLVELRIWNIGAYANLCEYSTWLRLWWIRWSMYGIQFQDKTGKP” was 61100.
The value for “EQDNVDSTQQSSTGRVKRSREDSASGERLRSTSRSRSKSPSGRHKRSRRHRRS” was 36100.
For the sequence “MTGRHLWGIGVLFLPLLFFLLDFPFFSFSFLLMCLCEILSIFFWLHFSLGREG”, the “transcriptional activation domain activity” value stood at 44900.
For “RSSLSSPPCPRSRRRMRVRSSTTTSTSPPARSSSADRTRPTSTTTAARPPACP”, the “transcriptional activation domain activity” value was 22000.
Regarding “YLVHAGVTQDFSLIGRKGVYSLGELEEIRHWVHQALLHCRLLLVCRKALQLVY”, the “transcriptional activation domain activity” value turned out to be 71800.
The value for “LLQSLKRTTEIPVKDAFLGLLRADACFCIYRMLRCTNVNLPICRLTGLLDVIR” was 61400.
The value for “TFSNGEGERVSAWDARETEDGGREIFIEGEEVRVVVVQIRDGRVADWKGAVRD” was 30200; that for “RAGGRGREKKKEAEGPKKRRRKGAGGGDGQRARRKDKGRRRGEIARTAEGRNG” was 20500.
The value for “LLECREDYINNNIRYCDDNKILLKSMIQMFVDLIPFSDKFLGLIFHIVPSFMH” was 44700.
As for “RLPNEWGWVLNVHLCIFYTIAFCFSVYQFCLDVIIGFPQMPWLESLSLLLPVL”, the “transcriptional activation domain activity” value came to 37500.
Take “MFVNLFFSLLTPICTLCFFCNPLSLPLPFFPSHLFPLFSILPLLFFFFFLCCY”: the “transcriptional activation domain activity” value was 46200.
The value for “MIHSAIIAWYCVFGLVFLLIVICIFHQFSSHRSSPWYFIQNWTRAFGFLSYIL” was 66700; that for “SPLPLLICSLPSLVNPLPLLPSTLALLPPPFILYYVLQYHVILFVFLVVFCFS” was 33200.
The value for “MYHISIQLLSVFISPSTPLFPDFLQISISFHLYSFFLFAIVIFFYFICLFLFV” was 61100; that for “LLGMFAQLAFADYVMTPSQARLALFVFERLLKLLRAAPYPCVRVAILQLLMWL” was 45500; that for “THYLCFIFSPRKLWPMNTQVSIPLFHLLILPVSPWIKQLYWLVFWNLFFVWWM” was 56200.
As to “MPHLCVSVCLFLVLVMKRWLHVCRDIICRSLSWPEYEFSHFCSLIMRVLMLLL”, the “transcriptional activation domain activity” value amounted to 76300.
With “GSFVGFLFCFVDFGFWILEFSFFFSWMPAGVLSFWMVASQWGKADDIFFSLFF”, the “transcriptional activation domain activity” value is 50600.
The value for “VMLSFFICRPILRLLHVFHISSPIYLYLPFVPLHLLIYPSFLIDVGLLSMVLA” was 65200; that for “GCEPKNQRIFYFHVLILQRSLMARLERHEEGLSTKEWRLVLGDHYWISHWKKV” was 51400.
The value for “ILLHIYVLGVCYFTFPLFLNGFAHWGLWKLDRITPVENLVQQYILKPYFKSYC” was 62900; that for “MVNNYWSYQYSLMPFLFFFFVSQFKSCSYFFFSLLFFSWLFRFLVSYFLSWKT” was 71500; that for “RWCARCMLLTATLHMGYFFSAWAPYDYIGYQLKNNKIVWKGLAAWCTLVWIVF” was 93300.
The value for “DNLDLASLDPLEQSPSISMEPVSINETGSAYTTTNTALNDIDIPFSINELNEL” was 64900; that for “DETLAYIARRHNYTGKSLILPPTEITLRFFAHVARVMELSMADLLIALVYVRR” was 50100; that for “RWGLGRWWVPFQLFVIFWDLDNWPVFGLRPWVFEFMEGPLEYVLSFLVLFTAK” was 67500.
In the case of “KMSTNANNYTGAGNLHAAKPATSPTNVGTLHENLSSSHFMIPDVDQFNSFEDF”, the “transcriptional activation domain activity” value amounted to 30300.
In the case of “MYIPPQSSVFLDIDSWGLIPVTCHLWLVMRWMYEAVMLPYLSQDGRHIVKFRY”, the “transcriptional activation domain activity” value was found to be 40700.
